B1: ATP-binding cassette sub-family C member 2 (Rattus norvegicus) (protein)
chain: MDKFCNSTFWDLSLLESPEADLPLCFEQTVLVWIPLGFLWLLAPWQLYSVYRSRTKRSSITKFYLAKQVFVVFLLILAAIDLSLALTEDTGQATVPPVRYTNPILYLCTWLLVLAVQHSRQWCVRKNSWFLSLFWILSVLCGVFQFQTLIRALLKDSKSNMAYSYLFFVSYGFQIVLLILTAFSGPSDSTQTPSVTASFLSSITFSWYDRTVLKGYKHPLTLEDVWDIDEGFKTRSVTSKFEAAMTKDLQKARQAFQRRLQKSQRKPEATLHGLNKKQSQSQDVLVLEEAKKKSEKTTKDYPKSWLIKSLFKTFHVVILKSFILKLIHDLLVFLNPQLLKLLIGFVKSSNSYVWFGYICAILMFAVTLIQSFCLQSYFQHCFVLGMCVRTTVMSSIYKKALTLSNLARKQYTIGETVNLMSVDSQKLMDATNYMQLVWSSVIQITLSIFFLWRELGPSILAGVGVMVLLIPVNGVLATKIRNIQVQNMKNKDKRLKIMNEILSGIKILKYFAWEPSFQEQVQGIRKKELKNLLRFGQLQSLLIFILQITPILVSVVTFSVYVLVDSANVLNAEKAFTSITLFNILRFPLSMLPMVTSSILQASVSVDRLERYLGGDDLDTSAIRRVSNFDKAVKFSEASFTWDPDLEATIQDVNLDIKPGQLVAVVGTVGSGKSSLVSAMLGEMENVHGHITIQGSTAYVPQQSWIQNGTIKDNILFGSEYNEKKYQQVLKACALLPDLEILPGGDMAEIGEKGINLSGGQKQRVSLARAAYQDADIYILDDPLSAVDAHVGKHIFNKVVGPNGLLAGKTRIFVTHGIHFLPQVDEIVVLGKGTILEKGSYRDLLDKKGVFARNWKTFMKHSGPEGEATVNNDSEAEDDDDGLIPTMEEIPEDAASLAMRRENSLRRTLSRSSRSSSRRGKSLKNSLKIKNVNVLKEKEKEVEGQKLIKKEFVETGKVKFSIYLKYLQAVGWWSILFIILFYGLNNVAFIGSNLWLSAWTSDSDNLNGTNNSSSHRDMRIGVFGALGLAQGICLLISTLWSIYACRNASKALHGQLLTNILRAPMRFFDTTPTGRIVNRFSGDISTVDDLLPQTLRSWMMCFFGIAGTLVMICMATPVFAIIIIPLSILYISVQVFYVATSRQLRRLDSVTKSPIYSHFSETVTGLPIIRAFEHQQRFLAWNEKQIDINQKCVFSWITSNRWLAIRLELVGNLVVFCSALLLVIYRKTLTGDVVGFVLSNALNITQTLNWLVRMTSEAETNIVAVERISEYINVENEAPWVTDKRPPADWPRHGEIQFNNYQVRYRPELDLVLKGITCNIKSGEKVGVVGRTGAGKSSLTNCLFRILESAGGQIIIDGIDVASIGLHDLRERLTIIPQDPILFSGSLRMNLDPFNKYSDEEVWRALELAHLRSFVSGLQLGLLSEVTEGGDNLSIGQRQLLCLGRAVLRKSKILVLDEATAAVDLETDSLIQTTIRKEFSQCTVITIAHRLHTIMDSDKIMVLDNGKIVEYGSPEELLSNRGSFYLMAKEAGIENVNHTEL
B2: ATP-binding cassette sub-family C member 2 (Homo sapiens) (protein)
chain: MLEKFCNSTFWNSSFLDSPEADLPLCFEQTVLVWIPLGYLWLLAPWQLLHVYKSRTKRSSTTKLYLAKQVFVGFLLILAAIELALVLTEDSGQATVPAVRYTNPSLYLGTWLLVLLIQYSRQWCVQKNSWFLSLFWILSILCGTFQFQTLIRTLLQGDNSNLAYSCLFFISYGFQILILIFSAFSENNESSNNPSSIASFLSSITYSWYDSIILKGYKRPLTLEDVWEVDEEMKTKTLVSKFETHMKRELQKARRALQRRQEKSSQQNSGARLPGLNKNQSQSQDALVLEDVEKKKKKSGTKKDVPKSWLMKALFKTFYMVLLKSFLLKLVNDIFTFVSPQLLKLLISFASDRDTYLWIGYLCAILLFTAALIQSFCLQCYFQLCFKLGVKVRTAIMASVYKKALTLSNLARKEYTVGETVNLMSVDAQKLMDVTNFMHMLWSSVLQIVLSIFFLWRELGPSVLAGVGVMVLVIPINAILSTKSKTIQVKNMKNKDKRLKIMNEILSGIKILKYFAWEPSFRDQVQNLRKKELKNLLAFSQLQCVVIFVFQLTPVLVSVVTFSVYVLVDSNNILDAQKAFTSITLFNILRFPLSMLPMMISSMLQASVSTERLEKYLGGDDLDTSAIRHDCNFDKAMQFSEASFTWEHDSEATVRDVNLDIMAGQLVAVIGPVGSGKSSLISAMLGEMENVHGHITIKGTTAYVPQQSWIQNGTIKDNILFGTEFNEKRYQQVLEACALLPDLEMLPGGDLAEIGEKGINLSGGQKQRISLARATYQNLDIYLLDDPLSAVDAHVGKHIFNKVLGPNGLLKGKTRLLVTHSMHFLPQVDEIVVLGNGTIVEKGSYSALLAKKGEFAKNLKTFLRHTGPEEEATVHDGSEEEDDDYGLISSVEEIPEDAASITMRRENSFRRTLSRSSRSNGRHLKSLRNSLKTRNVNSLKEDEELVKGQKLIKKEFIETGKVKFSIYLEYLQAIGLFSIFFIILAFVMNSVAFIGSNLWLSAWTSDSKIFNSTDYPASQRDMRVGVYGALGLAQGIFVFIAHFWSAFGFVHASNILHKQLLNNILRAPMRFFDTTPTGRIVNRFAGDISTVDDTLPQSLRSWITCFLGIISTLVMICMATPVFTIIVIPLGIIYVSVQMFYVSTSRQLRRLDSVTRSPIYSHFSETVSGLPVIRAFEHQQRFLKHNEVRIDTNQKCVFSWITSNRWLAIRLELVGNLTVFFSALMMVIYRDTLSGDTVGFVLSNALNITQTLNWLVRMTSEIETNIVAVERITEYTKVENEAPWVTDKRPPPDWPSKGKIQFNNYQVRYRPELDLVLRGITCDIGSMEKIGVVGRTGAGKSSLTNCLFRILEAAGGQIIIDGVDIASIGLHDLREKLTIIPQDPILFSGSLRMNLDPFNNYSDEEIWKALELAHLKSFVASLQLGLSHEVTEAGGNLSIGQRQLLCLGRALLRKSKILVLDEATAAVDLETDNLIQTTIQNEFAHCTVITIAHRLHTIMDSDKVMVLDNGKIIECGSPEELLQIPGPFYFMAKEAGIENVNSTKF

Key:
Format in all cases: functional, cell membranes, HEK293, Membrane vesicle
[1] = substrate: C=CC1=C(C)/C(=C/c2[nH]c(Cc3[nH]c(/C=C4\NC(=O)C(C)=C4C=C)c(C)c3CCC(=O)O[C@@H]3O[C@@H](C(=O)O)[C@H](O)[C@@H](O)[C@@H]3O)c(CCC(=O)O[C@@H]3O[C@H](C(=O)O)[C@H](O)[C@H](O)[C@@H]3O)c2C)NC1=O; test: (§1) TP_TRANSPORTER: uptake in membrane vesicles from Mrp2-expressing HEK cells
[2] = substrate: C=CC1=C(C)/C(=C/c2[nH]c(Cc3[nH]c(/C=C4\NC(=O)C(C)=C4C=C)c(C)c3CCC(=O)O[C@@H]3OC(C(=O)O)[C@@H](O)C(O)C3O)c(CCC(=O)O)c2C)NC1=O; test: as §1
[3] = substrate: C=CC1=C(C)/C(=C/c2[nH]c(Cc3[nH]c(/C=C4\NC(=O)C(C)=C4C=C)c(C)c3CCC(=O)O[C@@H]3O[C@@H](C(=O)O)[C@H](O)[C@@H](O)[C@@H]3O)c(CCC(=O)O[C@@H]3O[C@H](C(=O)O)[C@H](O)[C@H](O)[C@@H]3O)c2C)NC1=O; test: (§2) TP_TRANSPORTER: uptake in membrane vesicles from MRP2-expressing HEK cells
[4] = substrate: C=CC1=C(C)/C(=C/c2[nH]c(Cc3[nH]c(/C=C4\NC(=O)C(C)=C4C=C)c(C)c3CCC(=O)O[C@@H]3OC(C(=O)O)[C@@H](O)C(O)C3O)c(CCC(=O)O)c2C)NC1=O; test: as §2

Row | Protein | Km [1] [µM] | Km [2] [µM] | Km [3] [µM] | Km [4] [µM]
1 | B1 | 0.5 | 0.8 | – | –
2 | B2 | – | – | 0.9 | 0.7

— ChEMBL document CHEMBL2074447, “Transport of monoglucuronosyl and bisglucuronosyl bilirubin by recombinant human and rat multidrug resistance protein 2” (Hepatology, 1999)
